Consider 1 molecule from article PMC5840378, “Cytochrome c speeds up caspase cascade activation by blocking 14-3-3ε-dependent Apaf-1 inhibition” (Cell Death & Disease, 2018).

Broadly, the stoichiometry N is the number of molecules, sites or subunits per partner or assembly. The term Kd denotes the free concentration of one partner at which half of the binding sites on the other are occupied at equilibrium, for simple one-to-one binding.

Common to all, as to test: ITC; Auto-ITC200, 25 °C; 2-μL injections of 300 μM Cc into the cell with 20 μM 14-3-3ε species or peptide; 10 mM sodium phosphate pH 7.4
What all share (conditions): both partners purified
For orientation: ITC needs no label: the signal is the heat of the interaction.

Assay [1] has as its target T1, 14-3-3ε C-terminal peptide (14-3-3ε_(234-255)) (UniProt P62258 234-255).
T1 construct: 14-3-3ε, C-terminal tail, residues 234-255; also called non-acetylated peptide; C-terminal tail of 14-3-3ε; source: bought: Genosphere Biotechnologies (France)
T1 peptide (looked up): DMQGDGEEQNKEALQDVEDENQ

For another assay, the target named is T2, 14-3-3ε FL E92K (UniProt P62258 1-255, E92K).
T2 construct: 14-3-3ε full length with E92K; source: E. coli BL21 (DE3), purified (Ni Sepharose); mutant obtained from Mutagenex Inc
T2 sequence (looked up): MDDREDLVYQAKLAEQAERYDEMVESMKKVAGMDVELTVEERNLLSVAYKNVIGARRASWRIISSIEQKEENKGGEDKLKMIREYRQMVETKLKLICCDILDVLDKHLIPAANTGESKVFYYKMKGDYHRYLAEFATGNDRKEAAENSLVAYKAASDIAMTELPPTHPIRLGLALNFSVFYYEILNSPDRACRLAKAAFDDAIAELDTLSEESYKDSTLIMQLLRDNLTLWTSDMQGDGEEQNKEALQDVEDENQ

The target in the next assay is T3, 14-3-3ε FL S187D (UniProt P62258 1-255, S187D).
T3 construct: 14-3-3ε full length with S187D; source: E. coli BL21 (DE3), purified (Ni Sepharose); mutant obtained from Mutagenex Inc
T3 sequence (looked up): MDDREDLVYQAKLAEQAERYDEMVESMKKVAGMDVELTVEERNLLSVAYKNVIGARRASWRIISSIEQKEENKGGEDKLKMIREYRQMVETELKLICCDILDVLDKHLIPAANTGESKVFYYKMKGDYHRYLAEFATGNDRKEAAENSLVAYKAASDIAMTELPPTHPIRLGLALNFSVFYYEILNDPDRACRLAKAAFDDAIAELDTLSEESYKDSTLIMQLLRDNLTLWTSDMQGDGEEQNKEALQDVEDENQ

The target in assay [2] is T4, 14-3-3ε full length (14-3-3ε FL), recombinant (UniProt P62258 1-255).
T4 construct: 14-3-3ε (14-3-3 protein epsilon), full length, cloned NdeI-XhoI into pET-28a; Homodimer by ultracentrifugation and light scattering; The printed cloning primers seem to add a Met before Met1 and a Glu after the last residue; also called 14-3-3ε FL WT; source: E. coli BL21 (DE3), purified (Ni Sepharose)
T4 sequence (looked up): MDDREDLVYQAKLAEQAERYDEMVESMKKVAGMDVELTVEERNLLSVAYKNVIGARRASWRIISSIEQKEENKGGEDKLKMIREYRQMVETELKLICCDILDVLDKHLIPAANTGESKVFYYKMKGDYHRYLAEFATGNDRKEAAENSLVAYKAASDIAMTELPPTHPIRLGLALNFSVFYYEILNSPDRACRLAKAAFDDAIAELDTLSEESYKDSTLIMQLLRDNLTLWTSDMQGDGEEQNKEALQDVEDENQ

The next assay addresses T5, 14-3-3ε FL K50E (UniProt P62258 1-255, K50E).
T5 construct: 14-3-3ε full length with K50E; source: E. coli BL21 (DE3), purified (Ni Sepharose); mutant obtained from Mutagenex Inc
T5 sequence (looked up): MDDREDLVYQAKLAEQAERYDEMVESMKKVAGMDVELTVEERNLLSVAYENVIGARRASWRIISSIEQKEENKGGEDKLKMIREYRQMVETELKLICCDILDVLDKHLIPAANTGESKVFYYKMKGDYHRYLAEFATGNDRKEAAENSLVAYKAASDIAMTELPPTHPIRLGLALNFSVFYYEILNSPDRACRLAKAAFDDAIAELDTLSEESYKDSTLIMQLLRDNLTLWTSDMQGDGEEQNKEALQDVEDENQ

The next assay deals with T6, 14-3-3ε FL D99K (UniProt P62258 1-255, D99K).
T6 construct: 14-3-3ε full length with D99K; source: E. coli BL21 (DE3), purified (Ni Sepharose); mutant obtained from Mutagenex Inc
T6 sequence (looked up): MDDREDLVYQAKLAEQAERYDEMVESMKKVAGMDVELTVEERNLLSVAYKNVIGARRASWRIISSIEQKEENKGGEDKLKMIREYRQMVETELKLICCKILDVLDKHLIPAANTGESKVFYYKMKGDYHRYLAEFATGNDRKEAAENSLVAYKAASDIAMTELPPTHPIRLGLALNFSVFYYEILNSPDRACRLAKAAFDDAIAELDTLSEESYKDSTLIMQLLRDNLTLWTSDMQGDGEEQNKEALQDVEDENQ

Another assay concerns the target T7, 14-3-3ε FL D21K (UniProt P62258 1-255, D21K).
T7 construct: 14-3-3ε full length with D21K; source: E. coli BL21 (DE3), purified (Ni Sepharose); mutant obtained from Mutagenex Inc
T7 sequence (looked up): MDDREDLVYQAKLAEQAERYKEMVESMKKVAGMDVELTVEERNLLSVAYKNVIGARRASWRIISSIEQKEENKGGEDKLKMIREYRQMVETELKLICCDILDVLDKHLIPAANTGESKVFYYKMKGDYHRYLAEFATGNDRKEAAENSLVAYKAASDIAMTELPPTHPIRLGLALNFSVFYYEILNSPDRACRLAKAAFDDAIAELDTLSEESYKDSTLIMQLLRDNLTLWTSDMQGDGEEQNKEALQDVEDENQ

The target of another assay is T8, 14-3-3ε FL S59E (UniProt P62258 1-255, S59E).
T8 construct: 14-3-3ε full length with S59E; source: E. coli BL21 (DE3), purified (Ni Sepharose); mutant obtained from Mutagenex Inc
T8 sequence (looked up): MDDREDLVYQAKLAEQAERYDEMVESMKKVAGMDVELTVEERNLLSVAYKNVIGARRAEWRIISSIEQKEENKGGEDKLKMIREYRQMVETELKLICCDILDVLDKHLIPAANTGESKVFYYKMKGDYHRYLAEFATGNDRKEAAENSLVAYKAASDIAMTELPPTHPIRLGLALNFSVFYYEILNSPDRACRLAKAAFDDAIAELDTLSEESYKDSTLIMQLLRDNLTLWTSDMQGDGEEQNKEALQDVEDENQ

B1: cytochrome c (Cc), recombinant (natural protein)
chain: not shown
modifications: heme group; 15N-labelled for the 2D NMR titrations
notes: Met80 is M81 in P99999); Reduced with sodium ascorbate in the NMR experiments; also called hemeprotein; reduced Cc; source: E. coli BL21 (DE3), purified (ionic chromatography, carboxy-methylcellulose)
Turning to B1, the “stoichiometry N” value was 1 in assay [1]; 1 with 14-3-3ε FL E92K; 2 Cc per 14-3-3ε FL homodimer in assay [2]; 1 with 14-3-3ε FL K50E; 1 with 14-3-3ε FL D21K; 1 in the assay with 14-3-3ε FL S59E. The binding result with 14-3-3ε FL S187D and in the assay with 14-3-3ε FL D99K was “binds” each time. For the same molecule, the Kd in assay [2] is 2300 nM.
